Reference: patent US20260374875 (published 2026)

T1: mouse FcRn (mouse, UniProt Q61559)
T1 chain 1: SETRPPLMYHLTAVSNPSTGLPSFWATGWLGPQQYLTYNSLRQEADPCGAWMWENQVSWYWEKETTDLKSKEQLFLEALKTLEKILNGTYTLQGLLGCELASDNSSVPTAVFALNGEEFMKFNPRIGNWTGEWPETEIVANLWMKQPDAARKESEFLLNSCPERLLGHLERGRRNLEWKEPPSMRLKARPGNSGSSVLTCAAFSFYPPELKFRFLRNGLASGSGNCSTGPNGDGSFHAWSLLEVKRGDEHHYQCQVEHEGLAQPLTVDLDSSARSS
T1 chain 2: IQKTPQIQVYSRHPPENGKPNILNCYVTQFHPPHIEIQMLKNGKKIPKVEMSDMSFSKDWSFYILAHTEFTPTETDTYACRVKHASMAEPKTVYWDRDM

T2: monkey FcRn (monkey, UniProt Q8SPV9)
T2 chain 1: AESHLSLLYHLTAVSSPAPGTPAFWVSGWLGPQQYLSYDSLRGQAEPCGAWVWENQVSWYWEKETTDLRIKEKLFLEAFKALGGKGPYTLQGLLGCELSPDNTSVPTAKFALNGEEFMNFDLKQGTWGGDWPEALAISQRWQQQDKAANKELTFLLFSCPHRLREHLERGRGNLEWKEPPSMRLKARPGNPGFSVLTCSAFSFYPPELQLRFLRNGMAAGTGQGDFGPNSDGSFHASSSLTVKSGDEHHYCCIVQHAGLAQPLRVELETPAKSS
T2 chain 2: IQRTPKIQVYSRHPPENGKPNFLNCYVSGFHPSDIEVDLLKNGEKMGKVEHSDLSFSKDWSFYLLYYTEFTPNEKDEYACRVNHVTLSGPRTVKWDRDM


Experiments:
[1] = target: T3, human FcRn (human, UniProt P55899); assay: SPR, pH 6.0, 25C
[2] = target: T3, human FcRn; assay: SPR, pH 7.4, 25C
[3] = target: T3, human FcRn; assay: SPR, pH 6.0, 25C; remark: listed apart in the source
[4] = target: T1, mouse FcRn; assay: SPR, pH 6.0, 25C
[5] = target: T2, monkey FcRn; assay: SPR, pH 6.0, 25C

Row | Kd [1] | Kd [2] | Kd [3] | Kd [4] | Kd [5] | Binder
1 | 1.68 nM | – | – | – | – | W11A4.1 (Dimer) (protein) MGWSCIILFLVATATGVHSSDKTHTCPPCPAPEAAGGPSVFLFPPKPKDTLMISRTPEVTCVVVDVSHEDPEVKFNWYVDGVEVHNAKTKPREEQYNSTYRVVSVLNPYHQDWLNGKEYKCKVSNKALGAPIEKTISKAKGQPREPQVYTLPPSRDELTKNQVSLTCLVKGFYPSDIAVEWESNGQPENNYKTTPPVLDSDGSFFLYSKLTVDKSRWQQGNVFSCSVMHEALRWHYTQKSLSLSPGKGGGSGGGSGGGSGGGSSGGGSSSDKTHTSPPSPAPEAAGGPSVFLFPPKPKDTLMISRTPEVTCVVVDVSHEDPEVKFNWYVDGVEVHNAKTKPREEQYNSTYRVVSVLNPYHQDWLNGKEYKCKVSNKALGAPIEKTISKAKGQPREPQVYTLPPSRDELTKNQVSLTCLVKGFYPSDIAVEWESNGQPENNYKTTPPVLDSDGSFFLYSKLTVDKSRWQQGNVFSCSVMHEALRWHYTQKSLSLSPGK
2 | 2.85 nM | 34.1 nM | 3.3 nM | 0.189 nM | 4.26 nM | B14 H11A4.1 (mAb) (antibody) chain 1: MGWSCIILFLVATATGVHSQVQLVESGGGLVKPGGSLRLSCAASGFTFSDYYMSWIRQAPGKGLEWVSYITYSGSTIYYADSVKGRFTISRDNAKSSLYLQMNSLRAEDTAVYYCARDRGTTMVPFDYWGQGTLVTVSSASTKGPSVFPLAPSSKSTSGGTAALGCLVKDYFPEPVTVSWNSGALTSGVHTFPAVLQSSGLYSLSSVVTVPSSSLGTQTYICNVNHKPSNTKVDKKVEPKSCDKTHTCPPCPAPEAAGGPSVFLFPPKPKDTLMISRTPEVTCVVVDVSHEDPEVKFNWYVDGVEVHNAKTKPREEQYNSTYRVVSVLNPYHQDWLNGKEYKCKVSNKALGAPIEKTISKAKGQPREPQVYTLPPSREEMTKNQVSLTCLVKGFYPSDIAVEWESNGQPENNYKTTPPVLDSDGSFFLYSKLTVDKSRWQQGNVFSCSVMHEALRWHYTQKSLSLSPGK chain 2: not shown
3 | 1.74 nM | – | – | – | – | B14 H11A4.2 (mAb) (antibody) chain 1: MGWSCIILFLVATATGVHSQVQLVESGGGLVKPGGSLRLSCAASGFTFSDYYMSWIRQAPGKGLEWVSYITYSGSTIYYADSVKGRFTISRDNAKSSLYLQMNSLRAEDTAVYYCARDRGTTMVPFDYWGQGTLVTVSSASTKGPSVFPLAPSSKSTSGGTAALGCLVKDYFPEPVTVSWNSGALTSGVHTFPAVLQSSGLYSLSSVVTVPSSSLGTQTYICNVNHKPSNTKVDKKVEPKSCDKTHTCPPCPAPELLGGPSVFLFPPKPKDTLYITREPEVTCVVVDVSHEDPEVKFNWYVDGVEVHNAKTKPREEQYNSTYRVVSVLNPYHQDWLNGKEYKCKVSNKALPAPIEKTISKAKGQPREPQVYTLPPSREEMTKNQVSLTCLVKGFYPSDIAVEWESNGQPENNYKTTPPVLDSDGSFFLYSKLTVDKSRWQQGNVFSCSVMHEALRWHYTQKSLSLSPGK chain 2: not shown
4 | 1.23 nM | 15.1 nM | 1.23 nM | 0.782 nM | 2.45 nM | B14 H11A4.3 (mAb) (antibody) chain 1: MGWSCIILFLVATATGVHSQVQLVESGGGLVKPGGSLRLSCAASGFTFSDYYMSWIRQAPGKGLEWVSYITYSGSTIYYADSVKGRFTISRDNAKSSLYLQMNSLRAEDTAVYYCARDRGTTMVPFDYWGQGTLVTVSSASTKGPSVFPLAPSSKSTSGGTAALGCLVKDYFPEPVTVSWNSGALTSGVHTFPAVLQSSGLYSLSSVVTVPSSSLGTQTYICNVNHKPSNTKVDKKVEPKSCDKTHTCPPCPAPEAAGGPSVFLFPPKPKDTLYITREPEVTCVVVDVSHEDPEVKFNWYVDGVEVHNAKTKPREEQYNSTYRVVSVLNPYHQDWLNGKEYKCKVSNKALGAPIEKTISKAKGQPREPQVYTLPPSREEMTKNQVSLTCLVKGFYPSDIAVEWESNGQPENNYKTTPPVLDSDGSFFLYSKLTVDKSRWQQGNVFSCSVMHEALRWHYTQKSLSLSPGK chain 2: not shown
5 | 0.288 nM | 7.62 nM | 0.288 nM | 0.839 nM | 1.38 nM | H11A4.3 (monomer) (protein) MGWSCIILFLVATATGVHSSDKTHTCPPCPAPEAAGGPSVFLFPPKPKDTLYITREPEVTCVVVDVSHEDPEVKFNWYVDGVEVHNAKTKPREEQYNSTYRVVSVLNPYHQDWLNGKEYKCKVSNKALGAPIEKTISKAKGQPREPQVYTLPPSREEMTKNQVSLTCLVKGFYPSDIAVEWESNGQPENNYKTTPPVLDSDGSFFLYSKLTVDKSRWQQGNVFSCSVMHEALRWHYTQKSLSLSPGK
6 | 0.292 nM | 3.51 nM | 0.292 nM | 0.0556 nM | 0.592 nM | H11A4.2 (monomer) (protein) MGWSCIILFLVATATGVHSSDKTHTCPPCPAPELLGGPSVFLFPPKPKDTLYITREPEVTCVVVDVSHEDPEVKFNWYVDGVEVHNAKTKPREEQYNSTYRVVSVLNPYHQDWLNGKEYKCKVSNKALPAPIEKTISKAKGQPREPQVYTLPPSRDELTKNQVSLTCLVKGFYPSDIAVEWESNGQPENNYKTTPPVLDSDGSFFLYSKLTVDKSRWQQGNVFSCSVMHEALRWHYTQKSLSLSPGK
7 | 0.559 nM | 15.2 nM | 0.7 nM | 0.0918 nM | 0.928 nM | H11A4.1 (Monomer) (protein) MGWSCIILFLVATATGVHSSDKTHTCPPCPAPEAAGGPSVFLFPPKPKDTLMISRTPEVTCVVVDVSHEDPEVKFNWYVDGVEVHNAKTKPREEQYNSTYRVVSVLNPYHQDWLNGKEYKCKVSNKALGAPIEKTISKAKGQPREPQVYTLPPSREEMTKNQVSLTCLVKGFYPSDIAVEWESNGQPENNYKTTPPVLDSDGSFFLYSKLTVDKSRWQQGNVFSCSVMHEALRWHYTQKSLSLSPGK
8 | 0.803 nM | 18.8 nM | 0.803 nM | 2.57 nM | 3.76 nM | A3 H11A4.3 (mAb) (antibody) chain 1: not shown chain 2: MGWSCIILFLVATATGVHSQSALTQPASVSGSPGQSITISCTGTSSDVGGYNYVSWYQQHPGKAPKLMIYDVSKRPSGVSNRFSGSKSGNTASLTISGLQSEDEADYYCNSLTSISTWVFGGGTKLTVLGQPKANPTVTLFPPSSEELQANKATLVCLISDFYPGAVTVAWKADGSPVKAGVETTKPSKQSNNKYAASSYLSLTPEQWKSHRSYSCQVTHEGSTVEKTVAPTECS
9 | 1.93 nM | 29.6 nM | 2.6 nM | 0.165 nM | 3.13 nM | A3 H11A4.1 (mAb) (antibody) chain 1: not shown chain 2: MGWSCIILFLVATATGVHSQSALTQPASVSGSPGQSITISCTGTSSDVGGYNYVSWYQQHPGKAPKLMIYDVSKRPSGVSNRFSGSKSGNTASLTISGLQSEDEADYYCNSLTSISTWVFGGGTKLTVLGQPKANPTVTLFPPSSEELQANKATLVCLISDFYPGAVTVAWKADGSPVKAGVETTKPSKQSNNKYAASSYLSLTPEQWKSHRSYSCQVTHEGSTVEKTVAPTECS
10 | 1.04 nM | 11.2 nM | 1.04 nM | 0.113 nM | 0.914 nM | A3 H11A4.2 (mAb) (antibody) chain 1: not shown chain 2: MGWSCIILFLVATATGVHSQSALTQPASVSGSPGQSITISCTGTSSDVGGYNYVSWYQQHPGKAPKLMIYDVSKRPSGVSNRFSGSKSGNTASLTISGLQSEDEADYYCNSLTSISTWVFGGGTKLTVLGQPKANPTVTLFPPSSEELQANKATLVCLISDFYPGAVTVAWKADGSPVKAGVETTKPSKQSNNKYAASSYLSLTPEQWKSHRSYSCQVTHEGSTVEKTVAPTECS
